Experimental data: paper PMC1919475

Assays:
[1] = target: ECFP-CSB expressed in CS1AN.S3.G2 cells (human) (UniProt Q03468); assay: co-IP
[2] = target: Cockayne syndrome B (CSB) protein, full-length, purified recombinant (human) (UniProt Q03468); assay: ELISA
[3] = target: APE1, major human apurinic/apyrimidinic (AP) endonuclease, full-length, purified recombinant (human) (UniProt P27695); assay: ELISA
[4] = target: APE1, endogenous in ECFP-CSB-CS1AN cell extracts (human (endogenous in CS1AN fibroblasts)) (UniProt P27695); assay: co-IP

APE1, endogenous in ECFP-CSB-CS1AN cell extracts (from UniProt P27695 1-318) (enzyme)
percent co-immunoprecipitated [1]: 5 to 50%

APE1, major human apurinic/apyrimidinic (AP) endonuclease, full-length, purified recombinant (from UniProt P27695 1-318) (enzyme)
EC50 [2]: > 20 nM

Cockayne syndrome B (CSB) protein, full-length, purified recombinant (from UniProt Q03468 1-1493) (natural protein)
EC50 [3]: > 4.5 nM

ECFP-CSB expressed in CS1AN.S3.G2 cells (from UniProt Q03468 1-1493) (natural protein)
percent co-immunoprecipitated [4]: 5 to 50%
